One molecule from publication PMC8752837, “Structural basis of BAK activation in mitochondrial apoptosis initiation” (Nature Communications, 2022) can be followed below.

For test [1], the system named is BCL2allKO HCT116 cells expressing mC-BAK and BID. Put plainly: Dox + TRAIL + CHX induced cell death by IncuCyte imaging of SYTOX Green uptake (direct activation). It is filed as cell-based, human. To be noted: TRAIL 200 ng/mL + CHX 0.5 µg/mL added at 6 h. The protocol:
We achieved stable, constitutive expression of human BID in mC-BAK expressing BCL2allKO HCT116 by retroviral transduction based on pMX-human-BID-IRES-GFP. Amplification primers are included in Supplementary Table 4. We performed two rounds of FACS sorting gating on GFP-positive cells to enrich for populations of cells that express BID.
For coexpression of mC-BAK + BID, we treated cells with different doses of Dox for 24 h to induce expression of mC-BAK. At 6 h, we treated cells with TRAIL (200 ng/mL) + cycloheximide (CHX, 0.5 µg/mL) to promote BID activation under conditions of protein synthesis inhibition by CHX, and continued to record Incucyte imaging of SYTOX Green uptake up to 48 h. We blocked caspase activity with qVD (40 µM).

Test [2] in a line: Liposome permeabilization by WT and mutant BAK proteins (autoactivation, or direct activation by BID BH3). It is filed as biochemical. To be noted: absence of BID BH3. The protocol:
Human BAK-∆TM-His6 (BAK)[26] spontaneously permeabilizes liposomes above a certain dose (>100 nM, Fig. 1a). In these dye-release assays[43]–[46], BAK is recruited via His-tag to liposomes containing 2.5 µM of the lipid 1,2-dioleoyl-sn-glycero-3-[(N-(5-amino-1-carboxypentyl)iminodiacetic acid)succinyl] (nickel salt), DGS-NTA(Ni).
To probe autoactivation with full-length BAK, we mutated hydrophobic residues at positions (0)−(6) of the BH3 to alanine or arginine, and D83, which forms the conserved salt bridge (s) with R127, to alanine (Fig. 2a). The BH3 residues participate in autoactivation from the ligand side [hydrophobic positions (0)–(5) and D83(s)] and also from the receptor groove side [hydrophobic positions (3)–(5)] (Fig. 2a). Thus, substitutions at positions (3)–(5) should affect receptor and ligand activities and are predicted to impact BAK activation more severely than mutations of positions (0)–(2), which affect only ligand activity. […] In contrast, almost all (2)–(5) and (s) missense mutants were considerably impaired in autoactivation (Fig. 2b and Supplementary Fig. 3a). […] Despite impairment in autoactivation, all missense mutants were directly activated by BID BH3 peptide, although they induced lower level of permeabilization compared to WT BAK (Fig. 2b and Supplementary Fig. 3a).
We performed liposome permeabilization assays as previously described[43]–[46]. […] (nickel salt) [DGS NTA(Ni), 2.5 μM final concentration in each assay] (Avanti Polar Lipids). We prepared 12.5 mM fluorophore; 8-aminonaphthalene-1, 3, 6-trisulfonic acid, disodium salt (ANTS) and 45 mM quencher; p-xylene-bis-pyridiniumbromide (DPX) in LUV buffer (10 mM HEPES pH 6.8, 200 mM KCl and 5 mM MgCl2). We mixed the lipid film in ANTS/DPX solution by vortexing and sonication (~15 min) followed by extrusion through polycarbonate membrane of 2 μm pore size (Avanti Polar lipids) to generate homogenous large unilamellar vesicles (LUVs). We separated LUVs from free ANTS/DPX by S500 size exclusion chromatography and stored them at 4 °C in the dark. We prepared peptide and protein dilutions in 96-well black flat bottom plates (Costar) kept on ice. ANTS release from permeabilized liposomes causes an increase in fluorescence, which we monitored at 37 °C for 90 min using a CLARIOSTAR microplate reader (BMG Labtech) set at excitation and emission wavelengths of 360 and 530 nm, respectively. We normalized the data relative to maximum and minimum fluorescence induced by 3% CHAPS and buffer controls, respectively. We quantified liposome permabilization by integrating area under curve (AUC) of normalized traces based on the Simpson’s equation, and analyzed that data in Excel and GraphPad Prism. AUC measurements reflect the kinetic and extent of liposome permeabilization and provide quantitative means for comparison between different experimental conditions (e.g., BAK mutants with gross or partial variation in activity). Variability in permeabilization of different liposomes is common and our analyses compare among conditions investigated with the same liposomes. Although the absolute permeabilization values may differ, the trends for the same conditions are always very similar between different liposomes.

B1: V74A (1): BAK missense mutant, WT-like; in cells as mCherry fusion (protein)
chain: MASGQGPGPPRQECGEPALPSASEEQVAQDTEEVFRSYVFYRHQQEQEAEGVAAPADPEMVTLPLQPSSTMGQAGRQLAIIGDDINRRYDSEFQTMLQHLQPTAENAYEYFTKIATSLFESGINWGRVVALLGFGYRLALHVYQHGLTGFLGQVTRFVVDFMLHHCIARWIAQRGGWVAALNLGNG
modifications: left off: His6, C-terminal, kept
notes: BAK missense mutant, WT-like; in cells as mCherry fusion
On to B1, for which the “cell death with Dox + TRAIL + CHX compared to Dox alone” value in test [1] is given as “boosted the levels of cell death”. The “autoactivation in liposome permeabilization assays” value in test [2] is “behave similar to WT BAK”.
